The text below walks through data of patent US20250388694A1 (BOOSTIMMUNE, published 2025).

The target of assay [1] is T1, Human TCTP (translationally controlled tumor protein) (human, UniProt P13693 1-172).
T1 construct: also called HRF; Tpt1
T1 sequence: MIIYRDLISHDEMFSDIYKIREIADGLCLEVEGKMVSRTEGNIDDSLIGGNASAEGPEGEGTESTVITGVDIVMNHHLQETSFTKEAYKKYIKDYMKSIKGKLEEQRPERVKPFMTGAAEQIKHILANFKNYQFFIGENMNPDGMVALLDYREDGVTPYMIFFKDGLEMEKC
Kind of assay: SPR, Biacore 8K, human TCTP immobilised on CM5 chip, antibody as analyte, 1:1 model. As to the method: The antigen binding capacity of antibodies selected in Example 1 was analyzed using a SPR technique. The device used was Biacore 8K (Ge Healthcare). Human TCTP was immobilized on a chip, and antibodies were shed at 6 or 7 different concentrations. A CM5 chip (GE Healthcare, Cat. 29-1275-56), a regeneration buffer (10 mM glycine-HCl (GE Healthcare)), and a driving buffer HBS-EP+, and the like were used. For kinetic analysis, the binding time was set to 100 or 120 seconds, the flow rate was set to 30 or 50 μl/min in the binding phase, and in the dissociation phase, the dissociation time was set to 300 or 360 seconds, and the flow rate was set to 30 or 50 μl/min. The fitting was carried out using a 1:1 combined model, and BIACore Evaluation Software (GE healthcare) was used as the evaluation software.

Assay [2] concerns the target T1, Human TCTP (translationally controlled …). Put plainly: ELISA, human TCTP coated at 1 µg/ml, antibody titrated, OD 450 nm. The procedure: ELISA was carried out to quantitatively analyze the binding capacity of selected antibodies to antigens. To this end, human TCTP was attached to an ELISA plate at a concentration of 1 μg/ml and then treated with antibodies of various concentrations to check the relative binding capacity. As a result of the measurement, all of antibodies Ab1, Ab2, Ab3, Ab4, Ab5, Ab6, Ab7, Ab8, Ab9, Ab12, Ab13, Ab14, Ab15, Ab17, Ab18, Ab19, Ab20, Ab21, and Ab22 were confirmed to bind well to human TCTP (FIGS. 1a and 1b).

The target of assay [3] is T2, mouse TCTP (mouse, UniProt P63028 1-172).
T2 sequence (looked up): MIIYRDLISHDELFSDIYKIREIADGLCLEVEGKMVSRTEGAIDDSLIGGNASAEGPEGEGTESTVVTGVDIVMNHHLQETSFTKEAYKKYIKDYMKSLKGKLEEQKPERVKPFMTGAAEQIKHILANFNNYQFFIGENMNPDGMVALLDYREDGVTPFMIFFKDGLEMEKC
Kind of assay: ELISA on mouse TCTP, binder titrated as scFv (axis [scFv] Log(nM)), OD450 [panel Mouse TCTP].

In assay [4] the target is T1, Human TCTP (translationally controlled …). Kind of assay: ELISA on human TCTP, binder titrated as scFv (axis [scFv] Log(nM)), OD450 [panel Human TCTP].
Assay [5] has the same target. Kind of assay: competition ELISA: human TCTP coated at 1 µg/ml, 150 nM TLR2 plus titrated antibody, bound TLR2 detected; % inhibition of TLR2-TCTP binding.

B1: Ab6 (antibody, V domains shown)
VH: QVQLQESGPGLVKPSGTLSLTCAVSGGSISSSNWWSWVRQPPGKGLEWIGEIDHSGTTTYNPSLKSRVTMSVDQSKNQFSLKLSSVTAADTAVYYCARDGSGSYEGYWGQGTLVTVSS
VL: DIQMTQSPSSLSASVGDRVTITCRASQAISNHLAWFQQKPGKAPKSLIYAASSLQSGVPSKFSGSGSGTDFTLTISSLQPEDFATYYCQQYHSYPITFGQGTRLEIK
notes: From Beacon screening; also called antibody Ab6
The molecule B1 yielded a Kd in assay [1] of 72.8 nM.

B2: Ab7 (antibody, V domains shown)
VH: QVQLQESGPGLVKPSETLSLTCAVSGGSISSSNWWSWVRQPPGKGLEWIGEIYHGVTTYNPSLKSRVTISVDNSKNQFSLKLSSVTAADTAVYYCARDGSGSYEGYWGQGTLVTVSS
VL: DIQMTQSPSSLSASVGDRVTITCRASQDISNYLAWFQQKPGKAPKSLIYAASSLQSGVPSKFSGSGSGTDFTLTISSLQPEDFATYYCQQYHYYPITFGQGTRLEIK
notes: From Beacon screening; also called antibody Ab7
In assay [1], B2 had a dissociation constant (Kd) of 107 nM.

B3: Ab14 (antibody, V domains shown)
VH: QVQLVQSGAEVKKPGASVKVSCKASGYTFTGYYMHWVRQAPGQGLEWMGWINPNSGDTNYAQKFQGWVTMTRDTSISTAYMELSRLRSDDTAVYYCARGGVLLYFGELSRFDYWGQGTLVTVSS
VL: QSALTQPPSASGSPGQSVAISCTGTSSDVGGYNYVSWYQQHPGKAPQLLIYEVTKRPSGVPDRFSGSKSGNTASLTVSGLQAEDEADYYCASYAGDNNLVFGGGTKLTVL
notes: also called antibody Ab14
Regarding B3, the binding result in assay [2] is recorded as “binds”.

B4: Ab15 (antibody, V domains shown)
VH: QVQLVQSGAEVKKPGASVKLSCKAAGYTFTVNAMHWVRQAPGQGLEWMGWINAGTGKTKYSQKFQGRLTITRDTSASTAYMHLSGLRSEDTAVYYCARGRAVAFDPWGQGTLVTVSS
VL: QSALTQPPSASGSPGQSVTISCTGTSSDVGGYDYVSWYQQHPDKAPKLMIYEVNKRPSGVPDRFSGSKSGNTASLTVSGLQAEDEADYYCNSYAGNNNLVFGGGTKLTVL
notes: also called antibody Ab15
On to B4, for which the binding result in assay [2] was “binds”.

B5: Ab9 (antibody, V domains shown)
VH: QVQLQQSGPGLVKPSQTLSLTCAISGDSVSSNSAAWNWIRQSPSRGLEWLGRTYYRSKWYNDYAVSVKSRITINPDTSKNQFSLQLNSVTPEDTAVYYCAREGITVGRGVMLYFDLWGRGTLVTVSS
VL: DVLMTQSPLSLPVTLGQPASISCRSSQSLVYSDGNTHLKWFQQRPGQSPRRLIYKVSKWDSGVPDRVSGSGSGTDFTLKISRVEAEDVGVYYCMQGTHWPPTFGQGTKVEIK
notes: From Beacon screening; also called antibody Ab9
Turning to B5, in assay [2], the binding result is “binds”.

B6: Ab10-1 (antibody, V domains shown)
VH: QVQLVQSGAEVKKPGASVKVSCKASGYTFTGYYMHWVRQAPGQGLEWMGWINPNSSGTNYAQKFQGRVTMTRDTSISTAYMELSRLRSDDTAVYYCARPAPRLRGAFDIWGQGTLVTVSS
VL: QSVVTQPPSVSAAPGQKVTISCSGSSSNIGNKKVSWYQQLPVTAPKLLIYDDNKRPSGIPDRFSGSKSGTSATLGITGLQTGDEADYYCATWDSSLRAVVFGGGTKLTVL
notes: Single-residue CDR mutant of Ab10; also called antibody Ab10-1; mutant of Ab10
Turning to B6, the binding result in assay [3] is “binds”. In addition, the “EC50 (read off the curve)” value in assay [4] was ~8 nM.

B7: Ab10-4 (antibody, V domains shown)
VH: not shown
VL: QSVVTQPPSVSAAPGQKVTISCSGSSSNIGNKKVSWYQQLPVTAPKLLIYDDNKRPSGIPDRFSGSKSGTSATLGITGLQTGDEADYYCATWDSSLRAVVFGGGTKLTVL
notes: Single-residue CDR mutant of Ab10; also called antibody Ab10-4; mutant of Ab10
As for B7, the binding result in assay [3] and in assay [4] was “binds” in each case.

B8: Ab10-6 (antibody, V domains shown)
VH: not shown
VL: QSVVTQPPSVSAAPGQKVTISCSGSSSNIGTKKVSWYQQLPVTAPKLLIYDDNKRPSGIPDRFSGSKSGTSATLGITGLQTGDEADYYCATWDSSLRAVVFGGGTKLTVL
notes: Single-residue CDR mutant of Ab10; also called antibody Ab10-6; mutant of Ab10
In the case of B8, the results for the “EC50 (read off the curve)” value in assay [3] and in assay [4] were ~9 nM and ~1 nM, respectively.

B9: Ab10-3 (antibody, V domains shown)
VH: not shown
VL: QSVVTQPPSVSAAPGQKVTISCSGSSSNIGNKKVSWYQQLPVTAPKLLIYDDNKRPSGIPDRFSGSKSGTSATLGITGLQTGDEADYYCATWDSSLRAVVFGGGTKLTVL
notes: Single-residue CDR mutant of Ab10; also called antibody Ab10-3; mutant of Ab10
Take B9: the “EC50 (read off the curve)” value in assay [3] is ~5 nM. In addition, the “IC50 (read off the curve)” value in assay [5] was ~20 nM.

B10: Ab10-5 (antibody, V domains shown)
VH: not shown
VL: QSVVTQPPSVSAAPGQKVTISCSGSSSNIGNKKVSWYQQLPVTAPKLLIYDDNKRPSGIPDRFSGSKSGTSATLGITGLQTGDEADYYCATWDSSLRAVVFGGGTKLTVL
notes: Single-residue CDR mutant of Ab10; also called antibody Ab10-5; mutant of Ab10
B10: the binding result in assay [3] and in assay [4] was “binds” throughout.

B11: Ab10-9 (antibody, V domains shown)
VH: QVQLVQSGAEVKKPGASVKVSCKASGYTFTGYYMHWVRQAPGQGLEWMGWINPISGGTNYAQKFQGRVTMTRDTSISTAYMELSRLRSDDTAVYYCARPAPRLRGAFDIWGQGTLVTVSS
VL: QSVVTQPPSVSAAPGQKVTISCSGSSSNIGNKKVSWYQQLPVTAPKLLIYDDNKRPSGIPDRFSGSKSGTSATLGITGLQTGDEADYYCATWDSSLRAVVFGGGTKLTVL
notes: Mutant of Ab10 made to prevent post-translational modification; also called antibody Ab10-9; mutant of Ab10
Take B11: the binding result in assay [3] and in assay [4] was “binds” throughout.

B12: Ab10-7 (antibody, V domains shown)
VH: not shown
VL: QSVVTQPPSVSAAPGQKVTISCSGSSSNIGNFKVSWYQQLPVTAPKLLIYDDNKRPSGIPDRFSGSKSGTSATLGITGLQTGDEADYYCATWDSSLRAVVFGGGTKLTVL
notes: Single-residue CDR mutant of Ab10; also called antibody Ab10-7; mutant of Ab10
In the case of B12, the binding result in assay [3] is recorded as “binds”. For the same molecule, the “EC50 (read off the curve)” value in assay [4] is ~20 nM.

B13: Ab10-8 (antibody, V domains shown)
VH: not shown
VL: QSVVTQPPSVSAAPGQKVTISCSGSSSNIGNKKVSWYQQLPVTAPKLLIYDDNKRPSGIPDRFSGSKSGTSATLGITGLQTGDEADYYCVTWDSSLRAVVFGGGTKLTVL
notes: Single-residue CDR mutant of Ab10; also called antibody Ab10-8; mutant of Ab10
B13: the binding result in assay [3] and in assay [4] was “binds” throughout.

B14: Ab10-2 (antibody, V domains shown)
VH: not shown
VL: QSVVTQPPSVSAAPGQKVTISCSGSSSNIGNKKVSWYQQLPVTAPKLLIYDDNKRPSGIPDRFSGSKSGTSATLGITGLQTGDEADYYCATWDSSLRAVVFGGGTKLTVL
notes: Single-residue CDR mutant of Ab10; also called antibody Ab10-2; mutant of Ab10
On to B14, for which the binding result in assay [3] and in assay [4] was “binds” in each case.

B15: Ab10-10 (antibody, V domains shown)
VH: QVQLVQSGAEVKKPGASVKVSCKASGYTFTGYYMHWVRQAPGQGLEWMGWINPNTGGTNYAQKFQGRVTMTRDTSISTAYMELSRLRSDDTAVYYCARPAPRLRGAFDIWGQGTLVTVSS
VL: QSVVTQPPSVSAAPGQKVTISCSGSSSNIGNKKVSWYQQLPVTAPKLLIYDDNKRPSGIPDRFSGSKSGTSATLGITGLQTGDEADYYCATWDSSLRAVVFGGGTKLTVL
notes: Mutant of Ab10 made to prevent post-translational modification; also called antibody Ab10-10; mutant of Ab10
With B15, the binding result in assay [3] and in assay [4] was “binds” throughout.

B16: Ab18 (antibody, V domains shown)
VH: QVQLQQSGPGLVKPSQTLSLTCAISGDSVSSNSAAWNWIRQSPSRGLEWLGRTYYRSKWYNDYAVSVKSRITINPDTSKNQFSLQLNSVTPEDTAVYYCARGGAAVFDYWGQGTLVTVSS
VL: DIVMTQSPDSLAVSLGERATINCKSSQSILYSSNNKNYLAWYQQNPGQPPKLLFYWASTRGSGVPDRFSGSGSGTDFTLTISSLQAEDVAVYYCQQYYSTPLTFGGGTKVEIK
notes: also called antibody Ab18
B16: in assay [2], the binding result was “binds”.

B17: Ab13 (antibody, V domains shown)
VH: QVQLQQSGPGLVKPSQTLSLTCAISGDSVSSNSAAWNWIRQSPSRGLEWLGRTYYRSKWYNDYAVSVKSRITINPDTSKNQFSLQLNSVTPEDTAVYYCARGGAAVFDYWGQGTLVTVSS
VL: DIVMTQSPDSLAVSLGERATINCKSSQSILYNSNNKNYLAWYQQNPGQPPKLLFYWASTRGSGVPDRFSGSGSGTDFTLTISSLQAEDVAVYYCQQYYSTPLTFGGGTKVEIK
notes: also called antibody Ab13
For B17, the “EC50 (read off the curve)” value in assay [2] was ~10 ng/mL.

B18: Ab17 (antibody, V domains shown)
VH: QVQLQQSGPGLVKPSQTLSLTCAISGDSVSSNSAAWNWIRQSPSRGLEWLGRTYYKSKWYNDYAVSVKSRMTINPDTSKNQFSLQLNSVTPEDTAVYYCARGGSAVFDYWGQGTLVTVSS
VL: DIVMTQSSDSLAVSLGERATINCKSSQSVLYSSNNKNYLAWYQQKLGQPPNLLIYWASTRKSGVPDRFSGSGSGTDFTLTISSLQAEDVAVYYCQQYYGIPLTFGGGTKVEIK
notes: also called antibody Ab17
As for B18, the equilibrium dissociation constant (Kd) in assay [1] amounted to 1.23 nM.

B19: Ab5 (antibody, V domains shown)
VH: QVQLVQSGAEVKKPGASVKVSCKASGYIFISYAMHWVRQAPGQRLEWMGWINAGNGYTEYSQKFQGRVTITRDTSALTAYMELRSLRSEDTAVYYCARRGYFDWWAFDYWGQGTLVTVSS
VL: EIVLTQSPDFQSVTPKEKVTITCRASQSIGSSLHWYQQKPDQSPKLLIKYASQSFSGVPSRFSGSGSGTDFTLTINSLEAEDAATYYCHQSSSLPQTFGQGTKVEIK
notes: From Beacon screening; also called antibody Ab5
On to B19, for which, in assay [2], the binding result was “binds”.

B20: Ab4 (antibody, V domains shown)
VH: QVQLVQSGAEVKKPGASVKVSCKASGYTFTSNAMHWVRQAPGQRLEWMGWINAGNGNTKYSQKFQGRVTITRDTSASTAYMELSSLRSEDTAVYYCARGYYDILTGYYTTDAFDIWGQGTMVTVSS
VL: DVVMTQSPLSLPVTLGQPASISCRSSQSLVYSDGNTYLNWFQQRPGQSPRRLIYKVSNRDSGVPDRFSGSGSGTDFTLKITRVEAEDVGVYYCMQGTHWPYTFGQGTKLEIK
notes: From Beacon screening; also called antibody Ab4
B20: the binding result in assay [2] is recorded as “binds”.

B21: Ab19 (antibody, V domains shown)
VH: QVQLQQSGPGLVKPSQTLSLTCAISGDSVSSSSAAWNWIRQSPSRGLEWLGRTYYRSKWYNDYAESVKSRITINPDTSKNQFSLQLNSVTPEDTAVYYCARRLTIVRGVMRGGMDVWGQGTTVTVSS
VL: DIVMTQSPDSLAVSLDERATINCKSSQNLLYSANNKDYLAWYQQKPGQPPKLLIYWASTRYSGIPDRFSGSGSGTDFTLTISSLQAEDVAVYYCQQYYSTPWTFGQGTKVEIK
notes: also called antibody Ab19
B21: the affinity in assay [1], expressed as Kd, was 2.77 nM.
